Source: patent US10822618B2, “Method of using a transgenic mouse with alpha-one antitrypsin (ATT) deficiency to screen compounds” (University of Massachusetts, priority 2016, dated 2020)

Columns and labels:
[1] = Respiratory phenotype in response to intratracheal PPE; assay type: in vivo, mice; settings: intratracheal dose of 0.33 IU; FIG. 7
Text: FIG. 7. Respiratory phenotype in response to a low and high dose of PPE.

[2] = biological target: T1, neutrophil elastase (Homo sapiens, UniProt P08246); settings: murine AAT protein, C57BL/6J; cited from earlier work
T1 sequence (P08246 30-267): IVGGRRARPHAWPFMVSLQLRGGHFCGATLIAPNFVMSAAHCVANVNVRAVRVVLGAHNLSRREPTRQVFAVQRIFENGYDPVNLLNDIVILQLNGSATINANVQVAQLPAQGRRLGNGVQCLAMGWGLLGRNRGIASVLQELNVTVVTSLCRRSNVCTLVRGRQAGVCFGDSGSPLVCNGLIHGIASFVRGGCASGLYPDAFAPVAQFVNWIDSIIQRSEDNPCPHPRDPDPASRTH

[3] = biological target: pancreatic elastase (Sus scrofa, UniProt P00772); settings: murine AAT protein, C57BL/6J; cited from earlier work
Sequence of pancreatic elastase (P00772 27-266): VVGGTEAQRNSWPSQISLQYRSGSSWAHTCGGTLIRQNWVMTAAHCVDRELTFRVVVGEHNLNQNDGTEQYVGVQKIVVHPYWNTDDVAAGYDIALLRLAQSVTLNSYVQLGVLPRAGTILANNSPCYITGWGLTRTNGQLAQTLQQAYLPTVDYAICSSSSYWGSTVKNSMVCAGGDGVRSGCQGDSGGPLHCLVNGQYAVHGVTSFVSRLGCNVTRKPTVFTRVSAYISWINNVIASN

Question: For PPE: porcine pancreatic elastase, which respiratory phenotype [1] is on record?
Answer: a stronger phenotype is induced

B1: AAT 1-2: murine α-1-antitrypsin protein corresponding to one of the Serpina1 genes (A-E) (protein, UniProt P22599 25-413, looked up)
Alpha-1-antitrypsin 1-2: EDVQETDTSQKDQSPASHEIATNLGDFAISLYRELVHQSNTSNIFFSPVSIATAFAMLSLGSKGDTHTQILEGLQFNLTQTSEADIHKSFQHLLQTLNRPDSELQLSTGNGLFVNNDLKLVEKFLEEAKNHYQAEVFSVNFAESEEAKKVINDFVEKGTQGKIVEAVKELDQDTVFALANYILFKGKWKKPFDPENTEEAEFHVDKSTTVKVPMMMLSGMLDVHHCSILSSWVLLMDYAGNASAVFLLPEDGKMQHLEQTLNKELISKILLNRRRRLVQIHIPRLSISGDYNLKTLMSPLGITRIFNNGADLSGITEENAPLKLSKAVHKAVLTIDETGTEAAAATVFEAVPMSMPPILRFDHPFLFIIFEEHTQSPIFVGKVVDPTHK
Question: What does the source list for B1?
Answer: inhibition of neutrophil elastase [2]: inhibit; inhibition of pancreatic elastase [3]: inhibit

B2: AAT 1-3: murine α-1-antitrypsin protein corresponding to one of the Serpina1 genes (A-E) (protein, UniProt Q00896 25-412, looked up)
Alpha-1-antitrypsin 1-3: EDVQETDTSQKDQSPASHEIATNLGDFAISLYRELVHQSNTSNIFFSPVSIATAFAMLSLGSKGDTHTQILEGLQFNLTQTSEADIHKSFQHLLQTLNRPDSELQLSTGNGLFVNNDLKLVEKFLEEAKNHYQAEVFSVNFAESEEAKKVINDFVEKGTQGKIVEAVKKLDQDTVFALANYILFKGKWKKPFDPENTEEAEFHVDESTTVKVPMMTLSGMLDVHHCSTLSSWVLLMDYAGNATAVFLLPDDGKMQHLEQTLSKELISKFLLNRRRRLAQIHFPRLSISGEYNLKTLMSPLGITRIFNNGADLSGITEENAPLKLSQAVHKAVLTIDETGTEAAAVTVLLAVPYSMPPILRFDHPFLFIIFEEHTQSPLFVGKVVDPTH
Question: With B2 as the molecule, how does the “inhibition of neutrophil elastase” value [2] read?
Answer: do not

Question: And the “inhibition of pancreatic elastase” value [3]?
Answer: do not

B3: AAT 1-1: murine α-1-antitrypsin protein corresponding to one of the Serpina1 genes (A-E) (protein, UniProt P07758 25-413, looked up)
Alpha-1-antitrypsin 1-1: EDVQETDTSQKDQSPASHEIATNLGDFAISLYRELVHQSNTSNIFFSPVSIATAFAMLSLGSKGDTHTQILEGLQFNLTQTSEADIHKSFQHLLQTLNRPDSELQLSTGNGLFVNNDLKLVEKFLEEAKNHYQAEVFSVNFAESEEAKKVINDFVEKGTQGKIAEAVKKLDQDTVFALANYILFKGKWKKPFDPENTEEAEFHVDESTTVKVPMMTLSGMLHVHHCSTLSSWVLLMDYAGNATAVFLLPDDGKMQHLEQTLSKELISKFLLNRRRRLAQIHFPRLSISGEYNLKTLMSPLGITRIFNNGADLSGITEENAPLKLSQAVHKAVLTIDETGTEAAAVTVLQMVPMSMPPILRFDHPFLFIIFEEHTQSPIFLGKVVDPTHK
Question: For B3, which “inhibition of neutrophil elastase” value [2] is on record?
Answer: inhibit

Question: What about the “inhibition of pancreatic elastase” value [3] of the same molecule?
Answer: inhibit

B4: AAT 1-4: murine α-1-antitrypsin protein corresponding to one of the Serpina1 genes (A-E) (protein, UniProt Q00897 25-413, looked up)
Alpha-1-antitrypsin 1-4: EDVQETDTSQKDQSPASHEIATNLGDFALRLYRELVHQSNTSNIFFSPVSIATAFAMLSLGSKGDTHTQILEGLQFNLTQTSEADIHKSFQHLLQTLNRPDSELQLSTGNGLFVNNDLKLVEKFLEEAKNHYQAEVFSVNFAESEEAKKVINDFVEKGTQGKIVEAVKKLDQDTVFALANYILFKGKWKQPFDPENTEEAEFHVDESTTVKVPMMTLSGMLDVHHCSMLSSWVLLMDYAGNTTAVFLLPDDGKMQHLEQTLNKELISQFLLNRRRSDAQIHIPRLSISGNYNLKTLMSPLGITRIFNNGADLSGITEENAPLKLSKAVHKAVLTIDETGTEAAAATVLQVATYSMPPIVRFDHPFLFIIFEEHTQSPIFVGKVVDPTHK
Question: For B4, which “inhibition of neutrophil elastase” value [2] is on record?
Answer: do not

Question: And the “inhibition of pancreatic elastase” value [3]?
Answer: do not
